Legend:
FGFR1 = FGFR1 (UniProt P11362); assay: phosphorylation enrichment, bacterial display (enrichment ratio); higher = better substrate or ligand; peptides without Tyr show the background
Jak2 = Jak2 (UniProt O60674); assay: as above
EPHB2 = EPHB2 (UniProt P29323); assay: as above
c-Abl (mouse) = assay: as above
Fyn = Fyn (UniProt P06241); assay: as above
Fes = Fes (UniProt P07332); assay: as above
Hck = Hck (UniProt P08631); assay: as above
c-Src = assay: as above
MERTK = MERTK (UniProt Q12866); assay: as above
Chain of MERTK (Q12866 whole entry, looked up): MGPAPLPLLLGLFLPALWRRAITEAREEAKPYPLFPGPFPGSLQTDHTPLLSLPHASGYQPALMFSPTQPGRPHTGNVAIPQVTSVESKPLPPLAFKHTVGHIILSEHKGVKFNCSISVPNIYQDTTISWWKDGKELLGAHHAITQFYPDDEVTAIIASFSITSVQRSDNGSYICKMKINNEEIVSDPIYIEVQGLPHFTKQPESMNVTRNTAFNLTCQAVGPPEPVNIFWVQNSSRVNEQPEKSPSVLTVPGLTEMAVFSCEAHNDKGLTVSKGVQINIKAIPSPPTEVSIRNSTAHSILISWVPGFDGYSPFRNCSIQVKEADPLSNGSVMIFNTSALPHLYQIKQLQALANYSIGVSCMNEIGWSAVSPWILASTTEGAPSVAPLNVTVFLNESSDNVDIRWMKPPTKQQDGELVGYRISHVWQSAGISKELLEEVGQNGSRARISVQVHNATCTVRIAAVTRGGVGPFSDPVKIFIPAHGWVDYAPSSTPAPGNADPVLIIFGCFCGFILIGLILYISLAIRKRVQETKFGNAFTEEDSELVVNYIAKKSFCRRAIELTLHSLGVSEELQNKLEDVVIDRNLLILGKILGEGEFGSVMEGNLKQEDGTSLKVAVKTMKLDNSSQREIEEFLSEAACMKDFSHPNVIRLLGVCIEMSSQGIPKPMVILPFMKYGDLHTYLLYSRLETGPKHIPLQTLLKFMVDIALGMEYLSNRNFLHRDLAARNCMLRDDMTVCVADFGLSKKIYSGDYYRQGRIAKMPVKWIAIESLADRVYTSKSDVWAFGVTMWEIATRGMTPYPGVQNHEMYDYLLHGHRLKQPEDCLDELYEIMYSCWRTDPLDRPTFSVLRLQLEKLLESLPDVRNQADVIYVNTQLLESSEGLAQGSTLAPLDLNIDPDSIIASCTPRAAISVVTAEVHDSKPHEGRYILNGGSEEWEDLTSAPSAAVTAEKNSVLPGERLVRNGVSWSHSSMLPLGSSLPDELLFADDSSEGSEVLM

Fer (mouse) = assay: as above
EPHB1 = EPHB1 (UniProt P54762); assay: as above
AncSZ = assay: as above
FGFR3 = FGFR3 (UniProt P22607); assay: as above
Chain of FGFR3 (P22607 whole entry, looked up): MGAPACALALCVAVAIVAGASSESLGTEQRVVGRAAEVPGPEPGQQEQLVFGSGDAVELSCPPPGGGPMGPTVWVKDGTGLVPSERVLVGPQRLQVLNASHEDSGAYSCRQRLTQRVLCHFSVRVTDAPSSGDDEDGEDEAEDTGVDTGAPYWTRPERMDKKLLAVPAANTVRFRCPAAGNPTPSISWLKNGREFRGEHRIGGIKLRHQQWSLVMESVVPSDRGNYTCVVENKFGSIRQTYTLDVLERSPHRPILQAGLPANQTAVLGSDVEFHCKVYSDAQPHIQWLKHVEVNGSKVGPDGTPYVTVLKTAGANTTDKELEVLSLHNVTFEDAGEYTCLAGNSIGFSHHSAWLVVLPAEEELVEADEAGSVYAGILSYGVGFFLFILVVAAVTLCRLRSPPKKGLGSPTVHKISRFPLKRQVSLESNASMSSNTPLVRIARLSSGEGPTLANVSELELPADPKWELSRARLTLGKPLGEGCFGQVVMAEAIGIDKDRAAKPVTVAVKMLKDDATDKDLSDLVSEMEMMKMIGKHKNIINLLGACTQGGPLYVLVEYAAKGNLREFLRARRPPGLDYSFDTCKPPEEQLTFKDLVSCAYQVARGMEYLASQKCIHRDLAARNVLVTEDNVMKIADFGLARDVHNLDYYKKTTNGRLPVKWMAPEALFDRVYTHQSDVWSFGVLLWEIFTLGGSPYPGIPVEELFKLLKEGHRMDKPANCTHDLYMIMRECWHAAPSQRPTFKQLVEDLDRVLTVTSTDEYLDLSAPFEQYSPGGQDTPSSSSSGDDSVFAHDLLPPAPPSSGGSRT

c-Src SH2 = assay: SH2 binding enrichment of the phosphorylated peptide, bacterial display (enrichment ratio); higher = better substrate or ligand; peptides without Tyr show the background
Grb2 SH2 = Grb2 SH2 (UniProt P62993); assay: as above
SHP2-C SH2 = assay: as above
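Wherever SH2 binding enrichment of the phosphorylated peptide, bacterial display is given: peptide library displayed on the E. coli surface as eCPX fusions, selected cells deep-sequenced, score is each peptide's frequency after selection divided by its frequency in the input.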
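Wherever phosphorylation enrichment, bacterial display is given: 11-residue human phosphosite peptides and single-mutation variants displayed on the E. coli surface, counted by deep sequencing, each peptide's frequency after selection divided by its frequency in the unselected input library; frequency after pTyr selection over input frequency; kinase dosed for 20-30% of maximal phosphorylation in three min.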

Chain of Jak2 (O60674 whole entry, looked up): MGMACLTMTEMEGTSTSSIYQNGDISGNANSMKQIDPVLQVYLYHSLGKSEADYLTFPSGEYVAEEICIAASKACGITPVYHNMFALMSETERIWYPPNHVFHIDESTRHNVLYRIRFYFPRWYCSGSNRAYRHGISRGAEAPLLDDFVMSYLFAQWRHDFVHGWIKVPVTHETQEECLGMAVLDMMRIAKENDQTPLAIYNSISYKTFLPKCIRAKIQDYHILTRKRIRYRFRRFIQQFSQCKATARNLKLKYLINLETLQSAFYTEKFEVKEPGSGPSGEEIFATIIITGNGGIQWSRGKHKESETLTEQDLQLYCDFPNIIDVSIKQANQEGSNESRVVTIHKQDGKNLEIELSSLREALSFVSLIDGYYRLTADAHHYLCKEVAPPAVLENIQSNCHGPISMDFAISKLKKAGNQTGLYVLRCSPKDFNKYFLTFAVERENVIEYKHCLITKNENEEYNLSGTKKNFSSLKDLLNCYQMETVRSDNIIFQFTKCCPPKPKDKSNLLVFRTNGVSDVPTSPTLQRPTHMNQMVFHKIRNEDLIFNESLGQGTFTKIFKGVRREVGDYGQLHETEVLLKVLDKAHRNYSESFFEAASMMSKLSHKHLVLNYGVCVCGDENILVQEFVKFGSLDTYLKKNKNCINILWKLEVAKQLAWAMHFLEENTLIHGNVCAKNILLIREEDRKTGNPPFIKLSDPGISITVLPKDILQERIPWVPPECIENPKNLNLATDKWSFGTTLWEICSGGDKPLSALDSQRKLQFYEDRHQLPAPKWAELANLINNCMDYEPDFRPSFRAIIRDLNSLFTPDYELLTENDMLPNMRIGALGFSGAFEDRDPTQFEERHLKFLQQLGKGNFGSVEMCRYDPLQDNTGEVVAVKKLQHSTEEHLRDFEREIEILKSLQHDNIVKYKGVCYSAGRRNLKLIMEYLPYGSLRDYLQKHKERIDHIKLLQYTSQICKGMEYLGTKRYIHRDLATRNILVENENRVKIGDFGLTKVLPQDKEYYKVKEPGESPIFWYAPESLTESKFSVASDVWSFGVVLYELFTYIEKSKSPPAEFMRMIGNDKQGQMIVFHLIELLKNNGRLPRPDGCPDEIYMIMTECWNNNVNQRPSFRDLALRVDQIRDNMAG
Chain of Fes (P07332 whole entry, looked up): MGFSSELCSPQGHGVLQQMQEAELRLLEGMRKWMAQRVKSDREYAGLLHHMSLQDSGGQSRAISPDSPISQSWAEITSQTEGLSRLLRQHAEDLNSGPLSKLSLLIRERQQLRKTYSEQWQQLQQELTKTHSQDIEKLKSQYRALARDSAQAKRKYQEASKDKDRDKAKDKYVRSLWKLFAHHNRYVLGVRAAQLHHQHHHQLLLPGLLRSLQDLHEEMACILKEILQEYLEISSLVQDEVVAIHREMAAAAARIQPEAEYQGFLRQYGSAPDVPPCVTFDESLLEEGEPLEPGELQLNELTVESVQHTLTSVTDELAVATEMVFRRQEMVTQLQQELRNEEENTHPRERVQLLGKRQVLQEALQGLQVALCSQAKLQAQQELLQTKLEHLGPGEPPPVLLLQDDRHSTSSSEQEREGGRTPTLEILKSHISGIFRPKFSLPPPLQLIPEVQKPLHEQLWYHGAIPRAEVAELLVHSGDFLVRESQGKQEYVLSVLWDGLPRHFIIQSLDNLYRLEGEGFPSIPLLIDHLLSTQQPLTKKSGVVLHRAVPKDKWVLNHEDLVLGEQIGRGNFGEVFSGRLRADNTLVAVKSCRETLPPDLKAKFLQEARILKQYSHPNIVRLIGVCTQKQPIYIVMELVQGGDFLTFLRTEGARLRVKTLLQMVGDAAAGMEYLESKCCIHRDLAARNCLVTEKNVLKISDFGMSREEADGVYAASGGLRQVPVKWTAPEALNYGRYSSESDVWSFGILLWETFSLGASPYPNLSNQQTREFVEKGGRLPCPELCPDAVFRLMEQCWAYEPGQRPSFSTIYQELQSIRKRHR
Chain of EPHB2 (P29323 whole entry, looked up): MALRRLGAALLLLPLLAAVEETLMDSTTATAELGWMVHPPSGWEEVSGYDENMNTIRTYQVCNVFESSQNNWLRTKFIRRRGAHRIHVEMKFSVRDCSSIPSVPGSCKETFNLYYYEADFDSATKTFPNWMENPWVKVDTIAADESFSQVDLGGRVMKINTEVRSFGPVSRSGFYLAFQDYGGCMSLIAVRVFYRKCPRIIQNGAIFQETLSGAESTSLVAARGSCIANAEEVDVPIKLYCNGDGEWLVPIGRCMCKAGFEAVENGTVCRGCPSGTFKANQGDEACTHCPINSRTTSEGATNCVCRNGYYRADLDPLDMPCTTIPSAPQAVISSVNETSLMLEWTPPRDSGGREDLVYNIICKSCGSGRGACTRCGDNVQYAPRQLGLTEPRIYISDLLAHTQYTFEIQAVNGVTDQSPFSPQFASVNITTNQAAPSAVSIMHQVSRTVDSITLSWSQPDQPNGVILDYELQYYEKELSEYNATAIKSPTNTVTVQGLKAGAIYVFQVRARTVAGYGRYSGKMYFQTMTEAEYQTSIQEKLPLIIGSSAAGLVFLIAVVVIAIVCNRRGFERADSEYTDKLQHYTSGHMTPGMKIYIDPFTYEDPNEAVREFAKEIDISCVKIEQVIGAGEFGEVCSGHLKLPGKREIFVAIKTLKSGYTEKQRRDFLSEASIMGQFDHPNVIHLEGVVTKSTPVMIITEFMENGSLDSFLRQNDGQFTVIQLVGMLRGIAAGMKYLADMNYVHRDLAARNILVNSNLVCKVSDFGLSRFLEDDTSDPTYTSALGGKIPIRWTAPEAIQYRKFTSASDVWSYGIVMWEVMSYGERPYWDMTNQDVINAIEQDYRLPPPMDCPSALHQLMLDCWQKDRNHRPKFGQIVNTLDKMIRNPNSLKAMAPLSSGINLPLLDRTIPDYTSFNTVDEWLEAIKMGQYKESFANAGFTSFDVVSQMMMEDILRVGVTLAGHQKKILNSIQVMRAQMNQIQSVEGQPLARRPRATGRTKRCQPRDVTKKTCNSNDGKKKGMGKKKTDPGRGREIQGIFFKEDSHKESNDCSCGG

| SH2 binding enrichment (c-Src SH2) | SH2 binding enrichment (Grb2 SH2) | SH2 binding enrichment (SHP2-C SH2) | Sequence | phosphorylation enrichment (FGFR1) | phosphorylation enrichment (Jak2) | phosphorylation enrichment (EPHB2) | phosphorylation enrichment (c-Abl (mouse)) | phosphorylation enrichment (Fyn) | phosphorylation enrichment (Fes) | phosphorylation enrichment (Hck) | phosphorylation enrichment (c-Src) | phosphorylation enrichment (MERTK) | phosphorylation enrichment (Fer (mouse)) | phosphorylation enrichment (EPHB1) | phosphorylation enrichment (AncSZ) | phosphorylation enrichment (FGFR3) |
| --- | --- | --- | --- | --- | --- | --- | --- | --- | --- | --- | --- | --- | --- | --- | --- | --- |
| 0.718 | 0.906 | 0.485 | GEDPIYVTLEG [RTKtide_2018] | 4.71 | 1.2 | 6.76 | 1.7 | 5.05 | 1.47 | 3.44 | 3.9 | 2.29 | 3.86 | 5.64 | 1.81 | 3.4 |
| 0.906 | 1.28 | 1.03 | VVLVSYVPFSQ [SH2B1_Y624_S627F] | 0.526 | 1.38 | 0.702 | 0.938 | 0.55 | 1.37 | 0.648 | 0.833 | 0.496 | 0.501 | 0.716 | 1.29 | 0.771 |
| 1.67 | 1.6 | 1.88 | SYCYRYRCAAW [SUMF1_Y344_R349W] | 0.532 | 0.508 | 0.453 | 0.594 | 0.395 | 0.785 | 0.386 | 0.471 | 0.497 | 0.404 | 0.445 | 0.707 | 0.508 |
| 0.639 | 1.25 | 0.603 | EEQKKYYNAMK [SCN5A_Y1494] | 0.509 | 0.674 | 0.492 | 0.525 | 0.458 | 0.771 | 0.392 | 0.384 | 0.355 | 0.377 | 0.451 | 0.67 | 0.535 |
| 0.648 | 0.966 | 0.646 | EQKKFYNAVKK [SCN5A_Y1495_M1498V_YF] | 0.35 | 1.06 | 0.407 | 0.531 | 0.392 | 0.57 | 0.429 | 0.461 | 0.482 | 0.402 | 0.417 | 0.499 | 0.35 |
| 0.388 | 1.03 | 0.581 | RGKDSYETSKL [SPP1_Y225_Q229K] | 0.613 | 1.07 | 0.678 | 1.49 | 0.695 | 0.986 | 0.669 | 0.571 | 0.62 | 0.699 | 0.983 | 1.26 | 0.788 |
| 0.631 | 1.01 | 0.59 | EKQVAYCPSGR [ROS1_Y2323_K2328R] | 0.531 | 1.27 | 0.615 | 1.06 | 0.569 | 1.18 | 0.501 | 0.782 | 0.667 | 0.675 | 0.511 | 2.05 | 0.705 |
| 0.965 | 1.83 | 1.66 | FIILIYAMKKK [SLCO1B1_Y645_YF] | 0.509 | 0.447 | 0.385 | 0.51 | 0.321 | 0.583 | 0.465 | 0.32 | 1.35 | 0.354 | 0.179 | 0.323 | 0.377 |
| 0.515 | 0.933 | 0.553 | CEQELYSQLVF [WAS_Y102_W97C_YF] | 1.66 | 1.24 | 2.2 | 0.987 | 6.89 | 1.44 | 6.76 | 5.87 | 6.07 | 10.7 | 1.84 | 1.59 | 1.79 |
| 0.489 | 0.825 | 0.678 | FRVAGYKTQGG [TIA1_Y383_E384K_YF] | 0.417 | 0.558 | 0.468 | 0.686 | 0.668 | 0.624 | 0.401 | 0.342 | 0.436 | 0.273 | 0.379 | 0.533 | 0.468 |
| 0.935 | 0.691 | 0.676 | PEVSGYCHYAD [TG_Y234_C237Y] | 0.427 | 1.04 | 0.616 | 1.2 | 0.506 | 1.1 | 0.658 | 0.454 | 0.425 | 1.1 | 0.831 | 0.864 | 0.714 |
| 1.06 | 0.766 | 0.713 | SARSAYQEAMD [SFN_Y151] | 0.418 | 0.638 | 0.584 | 0.628 | 0.495 | 0.854 | 0.445 | 0.353 | 0.38 | 0.402 | 0.474 | 0.81 | 0.539 |

More lines, now with the values behind:

| Sequence | SH2 binding enrichment (c-Src SH2) | SH2 binding enrichment (Grb2 SH2) | SH2 binding enrichment (SHP2-C SH2) | phosphorylation enrichment (FGFR1) | phosphorylation enrichment (Jak2) | phosphorylation enrichment (EPHB2) | phosphorylation enrichment (c-Abl (mouse)) | phosphorylation enrichment (Fyn) | phosphorylation enrichment (Fes) | phosphorylation enrichment (Hck) | phosphorylation enrichment (c-Src) | phosphorylation enrichment (MERTK) | phosphorylation enrichment (Fer (mouse)) | phosphorylation enrichment (EPHB1) | phosphorylation enrichment (AncSZ) | phosphorylation enrichment (FGFR3) |
| --- | --- | --- | --- | --- | --- | --- | --- | --- | --- | --- | --- | --- | --- | --- | --- | --- |
| VTAALYGRLYE [BTD_Y536] | 1.12 | 0.899 | 0.838 | 0.498 | 0.904 | 1.43 | 0.888 | 5.26 | 1.04 | 5.15 | 4.81 | 2.68 | 1.31 | 1.06 | 0.883 | 0.724 |
| RDEHGYISRCF [HSPB1_Y133_Q128R] | 0.45 | 0.717 | 0.455 | 0.722 | 1.53 | 1.15 | 1.23 | 0.825 | 1.65 | 0.755 | 0.675 | 0.565 | 0.734 | 0.789 | 1.49 | 1.17 |
| NFYEYYVDDPP [GCHFR_Y48] | 0.679 | 0.709 | 0.505 | 5.94 | 1.23 | 6.26 | 0.877 | 5.21 | 1.29 | 2.65 | 4.3 | 6.46 | 6.58 | 5.35 | 2.53 | 4.76 |
| YEPDAYDDLDQ [ELP5_Y302] | 1.07 | 0.767 | 0.764 | 0.56 | 0.919 | 0.523 | 0.769 | 0.496 | 1.19 | 0.548 | 0.482 | 0.403 | 0.663 | 0.542 | 1.26 | 0.842 |
| MPLDQYSPSFP [FGFR1_Y776] | 0.518 | 1.08 | 0.803 | 0.631 | 0.917 | 0.617 | 0.706 | 0.496 | 0.941 | 0.6 | 0.552 | 0.595 | 0.654 | 0.399 | 0.857 | 0.79 |
| VIKDKYPKAHF [APTX_Y209_R213H_YF] | 0.766 | 0.999 | 1.01 | 0.38 | 0.534 | 0.3 | 0.514 | 0.389 | 0.493 | 0.284 | 0.369 | 0.356 | 0.355 | 0.285 | 0.523 | 0.387 |
| KNNDGNIDFAE [MCFD2_Y135_Y135N_YF] | 0.6 | 0.912 | 0.834 | 0.447 | 1.21 | 0.673 | 1 | 0.558 | 1.26 | 0.539 | 0.462 | 0.589 | 0.525 | 0.504 | 1.07 | 0.683 |
| GIYKDYYRYNF [PLA2G2D_Y85_S80G] | 1.03 | 1.13 | 1.31 | 12.2 | 7.91 | 5.13 | 5.76 | 5 | 0.805 | 3.32 | 4.78 | 4.72 | 0.938 | 5.44 | 1.4 | 9.59 |
| MAFDRYVAVCA [OR52J3_Y125] | 0.663 | 0.746 | 0.647 | 0.519 | 0.995 | 0.7 | 0.779 | 0.438 | 1.08 | 0.537 | 0.458 | 0.522 | 0.468 | 0.649 | 0.845 | 0.582 |
| VEGIGYDFIPT [CBS_Y308] | 7.71 | 0.79 | 1.02 | 0.588 | 0.827 | 0.576 | 0.723 | 0.594 | 1.12 | 0.785 | 0.539 | 0.501 | 0.43 | 0.579 | 1.04 | 0.685 |
| LFEDRYLLGTS [ASS1_Y87_YF] | 0.529 | 0.918 | 0.537 | 1.26 | 0.885 | 1.98 | 0.41 | 1.29 | 1.8 | 1.12 | 0.258 | 0.863 | 1.12 | 2.81 | 2.21 | 2.45 |
| TVFSDYLHPQF [CCPG1_Y569_YF] | 0.591 | 0.667 | 0.757 | 1.03 | 1.83 | 0.573 | 1.53 | 0.69 | 1.22 | 0.643 | 1.07 | 0.805 | 0.43 | 1.02 | 4.45 | 0.938 |
| PKFHSYVSLPF [PLXNA2_Y293] | 2.17 | 0.992 | 1.47 | 1.86 | 1.59 | 1.01 | 0.801 | 0.903 | 1.66 | 1.14 | 0.734 | 1.22 | 0.713 | 1.38 | 1.35 | 1.82 |
| QLPRGYISIPV [BAG3_Y205] | 0.887 | 0.736 | 0.993 | 0.482 | 0.881 | 0.722 | 0.867 | 0.839 | 0.974 | 0.718 | 0.592 | 0.612 | 0.642 | 0.698 | 0.789 | 0.744 |
| SAVTGYRVNVI [FN1_Y937_D940N] | 0.505 | 0.95 | 0.823 | 0.391 | 0.634 | 0.407 | 0.415 | 0.403 | 0.752 | 0.399 | 0.386 | 0.359 | 0.434 | 0.407 | 0.633 | 0.488 |
| GTFVIYVRFSG [FLNB_Y1687_G1691S_YF] | 0.442 | 1.15 | 0.812 | 0.406 | 1.14 | 0.468 | 0.979 | 0.426 | 1.4 | 0.454 | 0.539 | 0.472 | 0.443 | 0.572 | 1.17 | 0.569 |
| FKRAVYCIIGR [NUP93_Y391_YF] | 1.06 | 1.01 | 0.686 | 0.511 | 0.772 | 0.617 | 0.776 | 0.682 | 0.9 | 0.938 | 0.809 | 1.13 | 0.529 | 0.576 | 0.952 | 0.536 |
| TNFPLYLRSLE [MTM1_Y71_R69P_YF] | 0.675 | 0.883 | 0.976 | 0.449 | 1.13 | 0.51 | 0.493 | 0.413 | 0.761 | 0.505 | 0.492 | 0.378 | 0.401 | 0.685 | 0.716 | 0.544 |
| HKANEYFPVVI [ADAMTS18_Y764_L769I_YF] | 0.485 | 0.767 | 0.86 | 11.8 | 2.38 | 0.806 | 1.01 | 0.594 | 0.973 | 0.569 | 0.625 | 0.663 | 0.874 | 0.762 | 1.35 | 5.96 |
| KFVKMYDNHQL [MYO9A_Y203_YF] | 0.891 | 0.79 | 0.502 | 0.418 | 0.402 | 0.482 | 0.438 | 0.377 | 0.572 | 0.424 | 0.378 | 0.532 | 0.458 | 0.442 | 0.586 | 0.512 |
| SLNEVYTKNKT [MSH2_Y563_E562V] | 0.456 | 0.722 | 0.581 | 0.446 | 0.514 | 0.411 | 0.437 | 0.411 | 0.727 | 0.38 | 0.431 | 0.423 | 0.328 | 0.375 | 0.641 | 0.444 |
